T1: alpha subunit of the human FcεRI receptor (IgE high affinity receptor), expressed on Chinese hamster ovary … (human, UniProt P12319 26-257)
T1 construct: whole, on cells; also called CHO FcεRI+ cells; FcεRIα
T1 sequence (looked up): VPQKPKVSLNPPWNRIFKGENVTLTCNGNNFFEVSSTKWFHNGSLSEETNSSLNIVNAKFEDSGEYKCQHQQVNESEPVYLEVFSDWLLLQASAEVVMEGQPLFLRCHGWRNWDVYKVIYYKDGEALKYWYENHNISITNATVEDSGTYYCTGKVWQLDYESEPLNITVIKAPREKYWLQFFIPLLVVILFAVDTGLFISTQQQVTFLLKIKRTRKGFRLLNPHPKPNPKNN

B1: IGE131 (peptide)
peptide: VQCPHFCYVGGKVQCPHFCYV-NH2
modifications: not fully specified (bridges); cysteine pairing not given here
B2: IGE122 (peptide)
peptide: VQCPHFCYVGGKALCPDVCYV-NH2
modifications: not fully specified (bridges); cysteine pairing not given here
B3: IGE147 (peptide)
peptide: VQCPHFCYVGGKALCPDKCYV-NH2
modifications: cysteine pairing not given here
B4: IGE149 (peptide)
peptide: VQCPHFCYVGGKALCPDPCYV-NH2
modifications: cysteine pairing not given here
B5: IGE150 (peptide)
peptide: VQCPHFCYVGGKALCPDVCDV-NH2
modifications: not fully specified (bridges); cysteine pairing not given here
B6: IGE148 (peptide)
peptide: VQCPHFCYVGGKALCPDKCYT-NH2
modifications: cysteine pairing not given here
B7: IGE083 (peptide)
peptide: ALCPAVCYVGGKALCPDVCYV-NH2
modifications: disulfide 7-15, 3-19; N-terminus assumed
SMILES: CC(C)C[C@H](NC(=O)[C@H](C)N)C(=O)N[C@H]1CSSC[C@@H](C(=O)N[C@@H](Cc2ccc(O)cc2)C(=O)N[C@H](C(N)=O)C(C)C)NC(=O)[C@H](C(C)C)NC(=O)[C@H](CC(=O)O)NC(=O)[C@@H]2CCCN2C(=O)[C@@H]2CSSC[C@H](NC(=O)[C@H](C(C)C)NC(=O)[C@H](C)NC(=O)[C@@H]3CCCN3C1=O)C(=O)N[C@@H](Cc1ccc(O)cc1)C(=O)N[C@@H](C(C)C)C(=O)NCC(=O)NCC(=O)N[C@@H](CCCCN)C(=O)N[C@@H](C)C(=O)N[C@@H](CC(C)C)C(=O)N2
B8: IGE134 (peptide)
peptide: VQCPHFCYELDYELCPDVCYV-NH2
modifications: not fully specified (bridges); cysteine pairing not given here
B9: IGE173 (peptide)
peptide: VQCPHFCYELDYELCPDKCYT-NH2
modifications: not fully specified (bridges); cysteine pairing not given here
B10: IGE037 (peptide)
peptide: ALCPAVCYV-NH2
modifications: disulfide 3-7 (inferred); also: synthesized as monomer, spontaneously formed a dimer
B11: IGE089 (peptide)
peptide: ALCPAVCYV-NH2
modifications: also: antiparallel disulfide-linked homodimer, interchain C3-C7' and C7-C3'
notes: also called antiparallel covalent dimer of IGE037
B12: IGE132 (peptide)
peptide: VQCPHFCYVGGHALCPDVCYVGR
modifications: not fully specified (bridges); cysteine pairing not given here
notes: produced as Z-domain fusion in E. coli and released with trypsin
B13: IGE142 (peptide)
peptide: VQCAHFCYVGGHALCPDVCYVGR
modifications: disulfide (positions not given here)
notes: as for B12
B14: IGE145 (peptide)
peptide: VQCPDFCYVGGHALCPDVCYVGR
modifications: not fully specified; cysteine pairing not given here
notes: as for B12
B15: IGE123 (peptide)
peptide: VKCPSLCYVGGKALCPDVCYV-NH2
modifications: not fully specified (bridges); cysteine pairing not given here
B16: IGE124 (peptide)
peptide: VPCPELCYVGGKALCPDVCYV-NH2
modifications: not fully specified (bridges); cysteine pairing not given here
B17: IGE121 (peptide)
peptide: VVCPNMCYVGGKALCPDVCYV-NH2
modifications: not fully specified (bridges); cysteine pairing not given here
B18: IGE128 (peptide)
peptide: KSCPLWCYVGGKALCPDVCYV-NH2
modifications: not fully specified (bridges); cysteine pairing not given here
B19: IGE126 (peptide)
peptide: VTCPRWCYVGGKALCPDVCYV-NH2
modifications: cysteine pairing not given here
B20: IGE120 (peptide)
peptide: IVCPRLCYVGGKALCPDVCYV-NH2
modifications: not fully specified (bridges); cysteine pairing not given here
B21: IGE127 (peptide)
peptide: IVCARLCYVGGKALCPDVCYV-NH2
modifications: not fully specified (bridges); cysteine pairing not given here
B22: IGE119 (peptide)
peptide: NGCPGWCYVGGKALCPDVCYV-NH2
modifications: disulfide 7-15, 3-19; N-terminus assumed
SMILES: CC(C)C[C@@H]1NC(=O)[C@H](C)NC(=O)[C@H](CCCCN)NC(=O)CNC(=O)CNC(=O)[C@H](C(C)C)NC(=O)[C@H](Cc2ccc(O)cc2)NC(=O)[C@@H]2CSSC[C@H](NC1=O)C(=O)N1CCC[C@H]1C(=O)N[C@@H](CC(=O)O)C(=O)N[C@@H](C(C)C)C(=O)N[C@H](C(=O)N[C@@H](Cc1ccc(O)cc1)C(=O)N[C@H](C(N)=O)C(C)C)CSSC[C@H](NC(=O)CNC(=O)[C@@H](N)CC(N)=O)C(=O)N1CCC[C@H]1C(=O)NCC(=O)N[C@@H](Cc1c[nH]c3ccccc13)C(=O)N2
B23: IGE130 (peptide)
peptide: ALCPDVCYVGGKVQCPHFCYV-NH2
modifications: disulfide 7-15, 3-19; N-terminus assumed
SMILES: CC(C)C[C@H](NC(=O)[C@H](C)N)C(=O)N[C@H]1CSSC[C@@H](C(=O)N[C@@H](Cc2ccc(O)cc2)C(=O)N[C@H](C(N)=O)C(C)C)NC(=O)[C@H](Cc2ccccc2)NC(=O)[C@H](Cc2c[nH]cn2)NC(=O)[C@@H]2CCCN2C(=O)[C@@H]2CSSC[C@H](NC(=O)[C@H](C(C)C)NC(=O)[C@H](CC(=O)O)NC(=O)[C@@H]3CCCN3C1=O)C(=O)N[C@@H](Cc1ccc(O)cc1)C(=O)N[C@@H](C(C)C)C(=O)NCC(=O)NCC(=O)N[C@@H](CCCCN)C(=O)N[C@@H](C(C)C)C(=O)N[C@@H](CCC(N)=O)C(=O)N2

Bridges are numbered along the chain shown (N, C = ends). Where no end group is shown, it is not given here.

For the assay, the target named is T1, alpha subunit of the human FcεRI …. Put plainly: inhibition of 125I-IgE binding to CHO cells expressing human FcεRI alpha; competitor IgE. Here is the method:
To determine the ability of peptides to inhibit IgE binding to FcεRI, a cell-based binding assay was used with radiolabeled IgE. Chinese hamster ovary cells expressing the alpha subunit of the human FcεRI receptor were cultured overnight in Falcon 96 well microtiter plates at a concentration of 5 ×10^4 cells per well. The following day the cells were rinsed three times with PBS and then once with F12/DMEM. Peptide stocks were reconstituted in 100 mM Hepes buffered water, pH 7.2, at a concentration of 5 mg/mL. Working concentrations of the peptide were diluted in assay buffer (see below). 75 uL of a desired concentration of peptide was added to the top row of a separate 96 well microtiter plate and serially diluted 1:3 in 50 uL of the assay buffer (F12/DMEM, 1% BSA, 0.05% NaN_3 and 0.025 mM Hepes pH 7.2). Starting concentrations ranged from 50–500 uM. Next, 50 uL of the diluted peptide was transferred to the 96 microtiter well plate containing a monolayer of CHO FcεRI+ cells. […] Cells were […]
In the case of B1, the IC50 was 2300 nM.

B2 gave a half-maximal inhibitory concentration (IC50) of 170 nM.

In the case of B3, the IC50 stood at 158 nM.

Regarding B4, the IC50 was found to be 166 nM. This IC50 and that of the molecule before are within 1.5-fold of each other.

As for B5, the IC50 was found to be 1230 nM. This IC50 is about 7.4-fold higher than that of the molecule before.

For the molecule B6, the 50% inhibitory concentration (IC50) worked out at 94 nM.

In the case of B7, the IC50 came out at 1100 nM.

B8 registered a 50% inhibitory concentration (IC50) of 32 nM.

Take B9: the IC50 turned out to be 61 nM.

For B10, the IC50 was 251000 nM.

B11 came in with a half-maximal inhibitory concentration (IC50) of 64000 nM.

In the case of B12, the 50% inhibitory concentration (IC50) was 80 nM. This IC50 is about 800-fold lower than that of the molecule before.

Regarding B13, the IC50 was found to be 1000 nM.

As to B14, the half-inhibitory concentration (IC50) was 117 nM.

B15 had a half-inhibitory concentration (IC50) of 180 nM. This IC50 lies about 1.5-fold higher than the previous one.

Molecule B16 showed an IC50 of 890 nM.

Take B17: the IC50 was determined as 340 nM.

As for B18, the IC50 worked out at 240 nM.

The molecule B19 yielded a concentration for half-maximal inhibition (IC50) of 380 nM. Against the preceding molecule, the IC50 is about 1.6-fold higher.

For B20, the half-maximal inhibitory concentration (IC50) worked out at 290 nM. The IC50 values of the last two molecules are within 1.5-fold of each other.

As to B21, the concentration for half-maximal inhibition (IC50) stood at 13000 nM.

With B22, the IC50 stood at 1400 nM. This IC50 is about 9.3-fold lower than that of the molecule before.

As for B23, the half-maximal inhibitory concentration (IC50) is 250 nM.

A word on the IC50: it is the concentration at which inhibition is half-maximal. Lower therefore signals greater potency.

(Values after patent US7101851 (dated 2006).)
